Data published in the supplement of paper PMC10126150.
± gives the standard deviation of the averaged measurements.

Tested on: ATP
Assay: switch fluorescence ratio, 500 uM ATP over buffer (Cy3 cluster intensity, sum of 5 cycles each) (fold (ratio)); higher = stronger signal-on switching upon ATP binding; sequences stand for … in TCGTCGGCAGCGTCAGATGTGTATAAGAGACAGTTTTTTTTTTTTTTTTTTTTTTTTT…TC
Settings: aptamer strand: ATP DNA aptamer (quencher-CACCTGGGGGAGTATTGCGGAGGAAGG + anchor), 100 nM annealed; ATP concentration: 500 uM
In short: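 The fluorescence ratio divides summed target-cycle Cy3 intensity by summed buffer-cycle Cy3 intensity for each cluster and is averaged per switch-domain sequence. Cy3-labelled switching-strand clusters on a modified Illumina MiSeq flow-cell were annealed to 100 nM quencher-labelled ATP aptamer, then imaged in selection buffer and again after 15 min with 500 uM ATP at 22 °C. Five such cycles were run, with NaOH stripping and re-annealing between them, and clusters outside 100-1000 RFU were excluded.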
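Note: ATP exposure 15 min at 22 °C before imaging.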

| Sequence | switch fluorescence ratio |
| --- | --- |
| CAGATGTACC | 1.08 ± 0.028 |
| CAGATTGAAT | 0.982 ± 0.024 |
| CAGATTTGTT | 0.992 ± 0.018 |
| CAGATTTTGA | 0.9804 ± 0.0045 |
| CAGCATAAAG | 1.02 ± 0.057 |
| CAGCATCATC | 1.242 ± 0.011 |
| CAGCCCTAGG | 1.09 ± 0.053 |
| CAGCCTATGG | 0.991 ± 0.05 |
| CAGCCTGCGG | 1.01 ± 0.029 |
| CAGCGCCATA | 1.078 ± 0.0042 |
| CAGCGCCGGG | 0.994 ± 0.017 |
| CAGCGGGACC | 1.03 ± 0.025 |
| CAGCGGGCGT | 0.963 ± 0.01 |
| CAGCTAAAGG | 1.02 ± 0.03 |
| CAGCTACGTG | 1.0258 ± 0.00037 |
| CAGCTAGGTG | 1.54 ± 0.029 |
| CAGCTATCTT | 1.039 ± 0.01 |
| CAGCTCTAAG | 1 ± 0.013 |
| CAGCTCTGTT | 0.984 ± 0.041 |
| CAGCTGGCGC | 0.9949 ± 0.0083 |
| CAGCTTGGGG | 1.019 ± 0.0089 |
| CAGCTTGTTT | 1.01 ± 0.02 |
| CAGCTTTAAT | 1.03 ± 0.02 |

| Sequence | switch fluorescence ratio |
| --- | --- |
| CAGCTTTTGG | 0.993 ± 0.039 |
| CAGGAAATTG | 1.02 ± 0.052 |
| CAGGAAGCTG | 1.04 ± 0.11 |
| CAGGAAGGGA | 0.9958 ± 0.0064 |
| CAGGAAGGGG | 1 ± 0.032 |
| CAGGACTTGT | 0.969 ± 0.02 |
| CAGGACTTTT | 1 ± 0.0083 |
| CAGGAGACTA | 0.9979 ± 0.0094 |
| CAGGAGGGAG | 1.01 ± 0.011 |
| CAGGAGGGCA | 1.042 ± 0.0049 |
| CAGGATAACT | 1 ± 0.027 |
| CAGGATGCGA | 1.05 ± 0.016 |
| CAGGATGTAT | 0.9852 ± 0.0029 |
| CAGGATTAAA | 0.959 ± 0.029 |
| CAGGATTGTT | 1.02 ± 0.04 |
| CAGGCCTCTT | 0.9943 ± 0.0035 |
| CAGGCCTGAC | 1.02 ± 0.061 |
| CAGGCGTTAG | 1 ± 0.064 |
| CAGGCTCTTT | 0.978 ± 0.036 |
| CAGGGAAAGA | 1 ± 0.011 |
| CAGGGAAGGG | 1.01 ± 0.049 |
| CAGGGATGGA | 0.981 ± 0.013 |
| CAGGGCAGCG | 1.02 ± 0.04 |

| Sequence | switch fluorescence ratio |
| --- | --- |
| CAGGGCGGGG | 0.979 ± 0.037 |
| CAGGGCTATG | 1.01 ± 0.016 |
| CAGGGCTTAG | 1.01 ± 0.035 |
| CAGGGGAAAT | 0.993 ± 0.029 |
| CAGGGGCAAT | 2.7 ± 0.12 |
| CAGGGGCGTG | 0.9921 ± 0.0079 |
| CAGGGGGATT | 1.03 ± 0.042 |
| CAGGGGGGAC | 1 ± 0.022 |
| CAGGGGGTCA | 0.982 ± 0.015 |
| CAGGGGTACG | 0.991 ± 0.042 |
| CAGGGGTGTG | 0.996 ± 0.0076 |
| CAGGGGTTTT | 1.32 ± 0.54 |
| CAGGGTAGAG | 1 ± 0.043 |
| CAGGGTCGGG | 0.966 ± 0.035 |
| CAGGGTGAAT | 0.9909 ± 0.0056 |
| CAGGGTGAGT | 1.01 ± 0.022 |
| CAGGGTGGGG | 1.03 ± 0.048 |
| CAGGGTTCCG | 1.17 ± 0.28 |
| CAGGTAAGGC | 1.04 ± 0.033 |
| CAGGTAAGGT | 1.014 ± 0.0035 |
| CAGGTACATA | 1.055 ± 0.0086 |
| CAGGTAGGTT | 1.02 ± 0.068 |
| CAGGTATAAG | 1.01 ± 0.061 |

| Sequence | switch fluorescence ratio |
| --- | --- |
| CAGGTATTAC | 1.11 ± 0.026 |
| CAGGTCCAGT | 0.993 ± 0.02 |
| CAGGTCTTGG | 1.01 ± 0.03 |
| CAGGTGCGTT | 1.58 ± 0.028 |
| CAGGTGGTGG | 1.02 ± 0.02 |
| CAGGTGTCTG | 1.13 ± 0.032 |
| CAGGTTCTAC | 1.015 ± 0.0032 |
| CAGGTTGGTT | 1 ± 0.027 |
| CAGGTTTGTG | 1.01 ± 0.018 |
| CAGGTTTTTG | 0.983 ± 0.028 |
| CAGTAAAAAG | 1.03 ± 0.025 |
| CAGTAAGATC | 1.026 ± 0.0056 |
| CAGTACTCTT | 1.01 ± 0.03 |
| CAGTAGGCAG | 0.95 ± 0.016 |
| CAGTAGTTGC | 1.091 ± 0.0086 |
| CAGTATCGCG | 0.989 ± 0.005 |
| CAGTATGGGG | 0.9664 ± 0.0013 |
| CAGTATGTTT | 0.974 ± 0.044 |
| CAGTCATTTT | 0.984 ± 0.031 |
| CAGTCCCACG | 1.021 ± 0.0053 |
| CAGTCCGTTT | 1.02 ± 0.012 |
| CAGTCGGTTT | 1.013 ± 0.0088 |
| CAGTCGTCCT | 1.028 ± 0.0019 |

| Sequence | switch fluorescence ratio |
| --- | --- |
| CAGTCTAAGA | 1.03 ± 0.056 |
| CAGTCTAAGT | 1.02 ± 0.014 |
| CAGTCTTCTT | 1.02 ± 0.026 |
| CAGTCTTTTT | 1.03 ± 0.022 |
| CAGTGACTGT | 0.98 ± 0.034 |
| CAGTGAGAAC | 1.01 ± 0.025 |
| CAGTGATAAA | 1.008 ± 0.0066 |
| CAGTGATGGA | 1.007 ± 0.0046 |
| CAGTGATTTA | 0.981 ± 0.019 |
| CAGTGCATTG | 1.01 ± 0.023 |
| CAGTGCGGCT | 1.007 ± 0.0046 |
| CAGTGGAGCG | 0.964 ± 0.058 |
| CAGTGGCTTC | 1.01 ± 0.023 |
| CAGTGGGGTA | 0.966 ± 0.012 |
| CAGTGTGAAT | 1 ± 0.021 |
| CAGTGTTA | 0.985 ± 0.064 |
| CAGTGTTGGG | 1.002 ± 0.0016 |
| CAGTTAAAAA | 1.03 ± 0.012 |
| CAGTTAGATT | 1.01 ± 0.028 |
| CAGTTATCGT | 0.986 ± 0.016 |
| CAGTTATGGC | 0.999 ± 0.026 |
| CAGTTCAGTA | 0.992 ± 0.03 |
| CAGTTCATCG | 1.03 ± 0.025 |

| Sequence | switch fluorescence ratio |
| --- | --- |
| CAGTTCTGGG | 0.9872 ± 0.0097 |
| CAGTTCTGTA | 1.01 ± 0.038 |
| CAGTTGCGAG | 0.983 ± 0.042 |
| CAGTTGCTCA | 1.012 ± 0.0097 |
| CAGTTGGGAT | 0.969 ± 0.026 |
| CAGTTGGTTT | 0.97 ± 0.02 |
| CAGTTTACCG | 1.03 ± 0.019 |
| CAGTTTCGTT | 1.02 ± 0.037 |
| CAGTTTGTTA | 0.994 ± 0.036 |
| CAGTTTTGAT | 0.998 ± 0.019 |
| CAGTTTTGGG | 0.9713 ± 0.0016 |
| CATAAAGTAG | 1.02 ± 0.014 |
| CATAAATCAA | 0.9925 ± 0.006 |
| CATAACATAG | 0.995 ± 0.012 |
| CATAACGGGG | 0.957 ± 0.04 |
| CATAAGGGTG | 1.09 ± 0.038 |
| CATAAGTGGG | 0.973 ± 0.03 |
| CATAATCAGG | 1.04 ± 0.03 |
| CATAATCTAG | 1.03 ± 0.013 |
| CATACAGATC | 1.06 ± 0.031 |
| CATACATACG | 1.42 ± 0.056 |
| CATACGGTTT | 1.05 ± 0.024 |
| CATACGTCTG | 1.04 ± 0.017 |

| Sequence | switch fluorescence ratio |
| --- | --- |
| CATACTCAGA | 1 ± 0.045 |
| CATAGAGGGT | 0.951 ± 0.03 |
| CATAGAGTGT | 1 ± 0.021 |
| CATAGATTTT | 0.98896 ± 0.00042 |
| CATAGCTTTT | 1.01 ± 0.012 |
| CATAGGAGAC | 1 ± 0.017 |
| CATAGGGAGA | 1.006 ± 0.0042 |
| CATAGGGGAG | 1.042 ± 0.01 |
| CATAGGTCTA | 0.996 ± 0.019 |
| CATAGTGATG | 0.986 ± 0.026 |
| CATATATCAT | 1.008 ± 0.0095 |
| CATATATTT | 0.975 ± 0.015 |
| CATATCATGG | 0.988 ± 0.037 |
| CATATGAGGG | 0.991 ± 0.07 |
| CATATGCGTA | 0.9857 ± 0.0015 |
| CATATGTGCG | 0.992 ± 0.023 |
| CATATTCCTA | 0.999 ± 0.035 |
| CATATTCGGC | 0.988 ± 0.061 |
| CATATTGGAT | 1.02 ± 0.036 |
